B1: Compound 119 (peptide)
peptide: Ac-SEFCI[Trp(1-Me)]QDWGEHRC[Sar]EGAK([AEEA-γGlu-AEEA-Gly-γGlu-C18 diacid])-NH2
modifications: disulfide 4-14
SMILES: CC[C@H](C)[C@@H]1NC(=O)[C@@H](NC(=O)[C@H](Cc2ccccc2)NC(=O)[C@H](CCC(=O)O)NC(=O)[C@H](CO)NC(C)=O)CSSC[C@@H](C(=O)N(C)CC(=O)N[C@@H](CCC(=O)O)C(=O)NCC(=O)N[C@@H](C)C(=O)N[C@@H](CCCCNC(=O)COCCOCCNC(=O)CC[C@H](NC(=O)COCCOCCNC(=O)CNC(=O)CC[C@H](NC(=O)CCCCCCCCCCCCCCCCC(=O)O)C(=O)O)C(=O)O)C(N)=O)NC(=O)[C@H](CCCNC(=N)N)NC(=O)[C@H](Cc2c[nH]cn2)NC(=O)[C@H](CCC(=O)O)NC(=O)CNC(=O)[C@H](Cc2c[nH]c3ccccc23)NC(=O)[C@H](CC(=O)O)NC(=O)[C@H](CCC(N)=O)NC(=O)[C@H](Cc2cn(C)c3ccccc23)NC1=O
B2: Compound 154 (peptide)
peptide: Ac-SEFAI[Trp(1-Me)]QDWGEHR[hCys][Sar]EGAK([AEEA-γGlu-AEEA-Gly-γGlu-C18 diacid])-NH2
modifications: thioether 4-14; not fully specified
B3: Compound 122 (peptide)
peptide: Ac-SEYCI[Trp(1-Me)]QEWGEHRC[Sar]EGAK([AEEA-γGlu-AEEA-Gly-γGlu-C18 diacid])-NH2
modifications: disulfide 4-14
SMILES: CC[C@H](C)[C@@H]1NC(=O)[C@@H](NC(=O)[C@H](Cc2ccc(O)cc2)NC(=O)[C@H](CCC(=O)O)NC(=O)[C@H](CO)NC(C)=O)CSSC[C@@H](C(=O)N(C)CC(=O)N[C@@H](CCC(=O)O)C(=O)NCC(=O)N[C@@H](C)C(=O)N[C@@H](CCCCNC(=O)COCCOCCNC(=O)CC[C@H](NC(=O)COCCOCCNC(=O)CNC(=O)CC[C@H](NC(=O)CCCCCCCCCCCCCCCCC(=O)O)C(=O)O)C(=O)O)C(N)=O)NC(=O)[C@H](CCCNC(=N)N)NC(=O)[C@H](Cc2c[nH]cn2)NC(=O)[C@H](CCC(=O)O)NC(=O)CNC(=O)[C@H](Cc2c[nH]c3ccccc23)NC(=O)[C@H](CCC(=O)O)NC(=O)[C@H](CCC(N)=O)NC(=O)[C@H](Cc2cn(C)c3ccccc23)NC1=O
B4: Compound 111 (peptide)
peptide: Ac-EGSAYCI[Trp(1-Me)]QDWGEHRC[Sar]EK[γGlu]K([AEEA-AEEA-γGlu-C18 diacid])-NH2
modifications: disulfide 6-16
SMILES: CC[C@H](C)[C@@H]1NC(=O)[C@@H](NC(=O)[C@H](Cc2ccc(O)cc2)NC(=O)[C@H](C)NC(=O)[C@H](CO)NC(=O)CNC(=O)[C@H](CCC(=O)O)NC(C)=O)CSSC[C@@H](C(=O)N(C)CC(=O)N[C@@H](CCC(=O)O)C(=O)N[C@@H](CCCCN)C(=O)N[C@@H](CCC(=O)N[C@@H](CCCCNC(=O)COCCOCCNC(=O)COCCOCCNC(=O)CC[C@H](NC(=O)CCCCCCCCCCCCCCCCC(=O)O)C(=O)O)C(N)=O)C(=O)O)NC(=O)[C@H](CCCNC(=N)N)NC(=O)[C@H](Cc2c[nH]cn2)NC(=O)[C@H](CCC(=O)O)NC(=O)CNC(=O)[C@H](Cc2c[nH]c3ccccc23)NC(=O)[C@H](CC(=O)O)NC(=O)[C@H](CCC(N)=O)NC(=O)[C@H](Cc2cn(C)c3ccccc23)NC1=O
B5: Compound 117 (peptide)
peptide: Ac-SEYCI[Trp(1-Me)]QDWGEHRC[Sar]EGE[AEEA][AEEA]K([γGlu-Gly-γGlu-C18 diacid])-NH2
modifications: disulfide 4-14
B6: Compound 149 (peptide)
peptide: GEFAIWQDWGEHRCGEAEXXK
modifications: not fully specified; N-acetyl; C-terminal amide; delta-cystathionine (Ctt2) thioether bridge A4-hCys14 (hCys written C); W6 is 1-Me-Trp; G10 is Sar; G15 is Sar; X19 and X20 are Peg3; K21 side chain bears [17-carboxy-heptadecanoyl][γGlu]G[γGlu]
B7: Compound 146 (peptide)
peptide: SEFAIWQDWGEHRCGEGEXXK
modifications: not fully specified; N-acetyl; C-terminal amide; delta-cystathionine (Ctt2) thioether bridge A4-hCys14 (hCys written C); W6 is 1-Me-Trp; G15 is Sar; X19 and X20 are Peg3; K21 side chain bears [17-carboxy-heptadecanoyl][γGlu]G[γGlu]
B8: Compound 124 (peptide)
peptide: Ac-SEFCI[Trp(1-Me)]QEWGEHRC[Sar]EGE[AEEA][AEEA]K([γGlu-Gly-γGlu-C18 diacid])-NH2
modifications: disulfide 4-14
SMILES: CC[C@H](C)[C@@H]1NC(=O)[C@@H](NC(=O)[C@H](Cc2ccccc2)NC(=O)[C@H](CCC(=O)O)NC(=O)[C@H](CO)NC(C)=O)CSSC[C@@H](C(=O)N(C)CC(=O)N[C@@H](CCC(=O)O)C(=O)NCC(=O)N[C@@H](CCC(=O)O)C(=O)NCCOCCOCC(=O)NCCOCCOCC(=O)N[C@@H](CCCCNC(=O)CC[C@H](NC(=O)CNC(=O)CC[C@H](NC(=O)CCCCCCCCCCCCCCCCC(=O)O)C(=O)O)C(=O)O)C(N)=O)NC(=O)[C@H](CCCNC(=N)N)NC(=O)[C@H](Cc2c[nH]cn2)NC(=O)[C@H](CCC(=O)O)NC(=O)CNC(=O)[C@H](Cc2c[nH]c3ccccc23)NC(=O)[C@H](CCC(=O)O)NC(=O)[C@H](CCC(N)=O)NC(=O)[C@H](Cc2cn(C)c3ccccc23)NC1=O
B9: Compound 167 (peptide)
peptide: Ac-SEF[hCys]I[Trp(1-Me)]QEWGEHRA[Sar]EGE[AEEA][AEEA]K([γGlu-Gly-γGlu-C18 diacid])-NH2
modifications: thioether 4-14
B10: Compound 153 (peptide)
peptide: SEFAIWQEWGEHRCGEGEXXK
modifications: not fully specified; N-acetyl; C-terminal amide; delta-cystathionine (Ctt2) thioether bridge A4-hCys14 (hCys written C); W6 is 1-Me-Trp; G15 is Sar; X19 and X20 are Peg3; K21 side chain bears [17-carboxy-heptadecanoyl][γGlu]G[γGlu]
B11: Compound 126 (peptide)
peptide: Ac-SEFCI[Trp(1-Me)]QDWGEHRCTEGE[AEEA][AEEA]K([γGlu-Gly-γGlu-C18 diacid])-NH2
modifications: disulfide 4-14
B12: Compound 125 (peptide)
peptide: Ac-SEYCI[Trp(1-Me)]QEWGEHRC[Sar]EGE[AEEA][AEEA]K([γGlu-Gly-γGlu-C18 diacid])-NH2
modifications: disulfide 4-14
SMILES: CC[C@H](C)[C@@H]1NC(=O)[C@@H](NC(=O)[C@H](Cc2ccc(O)cc2)NC(=O)[C@H](CCC(=O)O)NC(=O)[C@H](CO)NC(C)=O)CSSC[C@@H](C(=O)N(C)CC(=O)N[C@@H](CCC(=O)O)C(=O)NCC(=O)N[C@@H](CCC(=O)O)C(=O)NCCOCCOCC(=O)NCCOCCOCC(=O)N[C@@H](CCCCNC(=O)CC[C@H](NC(=O)CNC(=O)CC[C@H](NC(=O)CCCCCCCCCCCCCCCCC(=O)O)C(=O)O)C(=O)O)C(N)=O)NC(=O)[C@H](CCCNC(=N)N)NC(=O)[C@H](Cc2c[nH]cn2)NC(=O)[C@H](CCC(=O)O)NC(=O)CNC(=O)[C@H](Cc2c[nH]c3ccccc23)NC(=O)[C@H](CCC(=O)O)NC(=O)[C@H](CCC(N)=O)NC(=O)[C@H](Cc2cn(C)c3ccccc23)NC1=O

This is an account of results in patent US20220306695A1, “COMPSTATIN ANALOGUES AND THEIR MEDICAL USES” (priority 2019, published 2022).

Starred links: 1 amine or outer side, 2 acyl side, 3 side chain; linkers in the order of their positions; H or OH if unused. Positions of bridges follow the written chain, without caps; N, C: chain ends. Non-standard residues stand in square brackets, D forms with d. Groups on a side chain read outwards from the residue. *: point of attachment. Trp(1-Me) = Cn1cc(C[C@H](N)C(=O)O)c2ccccc21; C18 diacid = O=C(O)CCCCCCCCCCCCCCCCC(=O)*; γGlu = O=C(O)[C@H](CCC(=O)[*:2])N[*:1]; hCys = N[C@@H](CCS)C(=O)O; AEEA = NCCOCCOCC(=O)O; Sar = CNCC(=O)O Bounds are passed on as bounds.

For one test, the target named is T1, Human C3 (human, UniProt P01024 23-1663).
T1 construct: In SPR the bought human C3 was immobilised on CM5 chips by amine coupling; In the haemolysis assay the C3 is that of diluted human serum; also called complement C3
T1 sequence (P01024 23-1663 limits assumed): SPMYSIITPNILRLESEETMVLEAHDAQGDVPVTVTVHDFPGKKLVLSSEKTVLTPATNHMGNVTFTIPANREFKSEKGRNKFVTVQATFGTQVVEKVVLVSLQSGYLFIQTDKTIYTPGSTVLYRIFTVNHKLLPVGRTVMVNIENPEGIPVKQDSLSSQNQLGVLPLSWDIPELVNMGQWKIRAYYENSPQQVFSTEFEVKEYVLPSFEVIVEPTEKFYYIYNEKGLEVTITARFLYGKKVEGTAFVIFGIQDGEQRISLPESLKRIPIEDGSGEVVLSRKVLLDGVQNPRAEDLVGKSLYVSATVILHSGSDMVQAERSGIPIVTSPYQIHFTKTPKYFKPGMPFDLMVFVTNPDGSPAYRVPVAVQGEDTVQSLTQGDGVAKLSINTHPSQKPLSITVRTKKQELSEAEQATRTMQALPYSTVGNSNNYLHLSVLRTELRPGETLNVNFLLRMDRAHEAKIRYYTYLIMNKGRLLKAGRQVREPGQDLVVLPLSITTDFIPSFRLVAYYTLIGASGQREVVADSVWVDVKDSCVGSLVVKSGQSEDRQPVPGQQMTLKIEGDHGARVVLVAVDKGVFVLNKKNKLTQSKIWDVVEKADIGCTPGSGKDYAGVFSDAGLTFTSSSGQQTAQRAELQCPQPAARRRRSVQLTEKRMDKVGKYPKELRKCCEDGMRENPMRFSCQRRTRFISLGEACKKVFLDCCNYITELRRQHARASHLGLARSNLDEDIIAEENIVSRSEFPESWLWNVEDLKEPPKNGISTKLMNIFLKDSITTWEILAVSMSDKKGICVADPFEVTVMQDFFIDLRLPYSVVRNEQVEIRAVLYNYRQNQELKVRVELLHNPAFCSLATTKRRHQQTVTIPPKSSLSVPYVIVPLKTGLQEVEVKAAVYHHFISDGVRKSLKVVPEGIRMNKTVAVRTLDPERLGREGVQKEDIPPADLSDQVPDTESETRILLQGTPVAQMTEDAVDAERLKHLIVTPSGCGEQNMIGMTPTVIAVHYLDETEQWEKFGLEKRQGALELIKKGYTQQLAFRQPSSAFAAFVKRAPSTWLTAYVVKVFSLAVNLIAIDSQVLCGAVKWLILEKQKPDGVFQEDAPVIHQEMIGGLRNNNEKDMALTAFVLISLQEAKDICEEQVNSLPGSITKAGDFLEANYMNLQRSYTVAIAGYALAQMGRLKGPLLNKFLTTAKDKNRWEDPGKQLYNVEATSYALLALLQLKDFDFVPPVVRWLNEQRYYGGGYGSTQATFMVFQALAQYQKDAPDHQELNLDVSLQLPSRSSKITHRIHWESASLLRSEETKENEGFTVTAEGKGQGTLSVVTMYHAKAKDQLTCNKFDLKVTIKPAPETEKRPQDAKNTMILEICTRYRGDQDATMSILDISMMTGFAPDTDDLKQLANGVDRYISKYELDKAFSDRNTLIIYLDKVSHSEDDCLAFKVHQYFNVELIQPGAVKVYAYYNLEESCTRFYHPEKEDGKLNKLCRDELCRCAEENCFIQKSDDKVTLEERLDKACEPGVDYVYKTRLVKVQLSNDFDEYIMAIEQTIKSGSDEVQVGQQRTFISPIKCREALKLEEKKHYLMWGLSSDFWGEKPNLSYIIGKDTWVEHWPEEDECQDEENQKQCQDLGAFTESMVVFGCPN
As to the kind of experiment: SPR, C3 immobilised. On the procedure: Surface plasmon resonance (SPR) was used to characterize peptides with respect to their binding affinity (Kd) for C3. Human C3 (Complement tech cat #A1 13c) was immobilised on individual flow cells of CM5 sensor chips (GE Healthcare) using standard amine coupling to a density of approximately 3000 resonance units (RU) in a buffer consisting of 10 mM phosphate pH 7.4, 150 mM NaCl, 0.05% Tween20.
For interaction experiments a multi-cycle experiment approach was used and performed using either a Biacore™ T200 or Biacore™ X100 instrument (GE Healthcare) at 25° C. Peptides were injected in increasing concentration series (5-8 different concentrations) for 60-120 s at a flow rate of 30 μL/min in a buffer consisting of 10 mM Tris buffer at pH 7.4, with 150 mM NaCl and 0.05% Tween20. This was followed by a dissociation period for up to 10 min. The C3 surface was regenerated between runs by a 45 s injection of 3 M MgCl₂.
Sensorgrams were double-referenced (reference surface, blanks) prior to analysis of the kinetic profiles by globally fitting data to a 1:1 Langmuir binding model to obtain association and dissociation rates for calculation of the equilibrium dissociation constant Kd. Each peptide was tested at in at least 2 independent experiments.
Molecule B1 displayed a Kd of 9.8 nM.

Take B2: binding was put at a Kd of 2.4 nM.

B3 came in with a dissociation constant Kd of 63 nM.

Molecule B4 showed a Kd of 8.2 nM.

Consider B5, for which the Kd came to 24 nM. This Kd lies about 2.9-fold higher than the previous one.

As for B6, the affinity, expressed as Kd, was 0.5 nM.

Regarding B7, the Kd worked out at 0.43 nM.

The molecule B8 gave a Kd of 31 nM.

In turn, B9 yielded a Kd of 57.4 nM.

Take B10: the affinity, expressed as Kd, was 11.1 nM.

Regarding B11, binding was put at a Kd of 5.2 nM. Compared with the last molecule, the Kd is about 2.1-fold lower.

Consider B12, for which the Kd worked out at 71 nM.

For another test, the target named is T1, Human C3. Put plainly: cell-based or functional assay.
In the case of B1, the “IC50[nM], inhibition of hemolysis” value was below 100 nM.

For the molecule B2, the “IC50[nM], inhibition of hemolysis” value is below 100 nM.

As to B3, the “IC50[nM], inhibition of hemolysis” value was below 500 nM.

For B4, the “IC50[nM], inhibition of hemolysis” value was below 100 nM.

Regarding B5, the “IC50[nM], inhibition of hemolysis” value was below 250 nM.

In the case of B6, the “IC50[nM], inhibition of hemolysis” value is below 100 nM.

On to B7, for which the “IC50[nM], inhibition of hemolysis” value is below 100 nM.

With B8, the “IC50[nM], inhibition of hemolysis” value was below 100 nM.

On to B9, for which the “IC50[nM], inhibition of hemolysis” value was below 500 nM.

With B10, the “IC50[nM], inhibition of hemolysis” value was below 100 nM.

With B11, the “IC50[nM], inhibition of hemolysis” value is below 100 nM.

With B12, the “IC50[nM], inhibition of hemolysis” value was below 500 nM.
